B1: Control-1 (dsDNA)
DNA 1: GTCAGCGCATGG
DNA 2: CCATGCGCTGAC
B2: Control-2 (dsDNA)
DNA 1: GAGGCGTGGC
DNA 2: TTGCCACGCCTC
B3: E-box 12-mer C/5hmC (dsDNA)
DNA 1: TGCCACGTGACC
DNA 2: GGTCACGTGGCA
modifications: 5hmC at position 6 of strand 2
B4: E-box 12-mer C/5mC (dsDNA)
DNA 1: TGCCACGTGACC
DNA 2: GGTCACGTGGCA
modifications: 5mC at position 6 of strand 2
B5: E-box 12-mer C/5fC (dsDNA)
DNA 1: TGCCACGTGACC
DNA 2: GGTCACGTGGCA
modifications: 5fC at position 6 of strand 2
B6: E-box 12-mer C/5caC (dsDNA)
DNA 1: TGCCACGTGACC
DNA 2: GGTCACGTGGCA
modifications: 5caC at position 6 of strand 2
B7: E-box 12-mer C/C (dsDNA)
DNA 1: TGCCACGTGACC
DNA 2: GGTCACGTGGCA

By Kd is commonly meant the concentration at which binding is half-saturated. A lower Kd goes with higher affinity.

Some results are limits rather than exact numbers.

T1 sequence (P61244 whole entry): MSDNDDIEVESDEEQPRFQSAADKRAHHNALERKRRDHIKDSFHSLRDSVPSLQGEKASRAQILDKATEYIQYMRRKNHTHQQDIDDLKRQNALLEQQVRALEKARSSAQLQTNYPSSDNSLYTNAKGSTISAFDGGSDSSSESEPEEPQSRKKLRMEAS

One data set addresses T1, MAX full length (Homo sapiens, UniProt P61244 1-160). The data set can be described thus: fluorescence polarization. For orientation: Fluorescence polarisation rises when a labelled molecule tumbles more slowly, as on binding a larger partner.
As for B1, the binding result is given as “no binding”.

In the case of B2, the binding result was “no binding”.

Another data set addresses T1, MAX full length. The data set can be described thus: fluorescence polarization. The source holds these as a separate data set.
B3 showed a binding signal of more than 13 fold weaker than C.

In turn, B4 yielded a binding signal of more than 13 fold weaker than C.

B5: the binding signal was 8 fold weaker than C.

For the next data set, the target named is MAX H28R (Homo sapiens, UniProt P61244 1-160, H28R). Put plainly: fluorescence polarization.
Sequence of MAX H28R (P61244 whole entry H28R): as the sequence (P61244 whole entry) above, with H28R counted along it
In the case of B3, the Kd was less than 5 nM.

Turning to B4, the equilibrium dissociation constant (Kd) is less than 5 nM.

B6: the Kd is less than 5 nM.

In turn, B5 gave an equilibrium dissociation constant (Kd) of less than 5 nM.

Regarding B7, the Kd was less than 5 nM.

The values are drawn from publication PMC5389568.
